These results are taken from patent US20190134606A1.

The assay addresses Fab fragment derived from the humanized anti-IgE monoclonal IgG omalizumab ("Xolair", Novartis), made by papain digestion. Kind of assay: column breakthrough, 1 mg/mL Fab, HiTrap Protein L column, ligand density 10 mg/mL-gel from the manual.

Substance “Protein L ligand of the commercially available Protein L carrier ("HiTrap Protein L" manufactured by GE Healthcare)” yielded a 55% DBC of 21.7 mg/mL-gel.
